In the supplement of paper PMC10567573 one finds protein stability index data, which are given here for 5 proteins.

The nature of the data set: protein stability index of a GFP-peptide fusion (GPS, HEK-293T) (PSI 1-6); higher = more stable. Particulars: c terminus: native.
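Further: lentivirally expressed fusion library, cells FACS-sorted into six equal-sized GFP/DsRed ratio bins, PSI computed from sequencing read fractions per bin weighted by bin number.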

B1: TRPA1 addW (peptide)
chain: EQRNSRWNTVLRAVKAKTHHLEPW
Regarding B1, the protein stability index (parent: NP_015628.1) came to 3.58.

B2: SNF8 addW (peptide)
chain: LPALFTDLYSQEITAEEAREALPW
Take B2: the protein stability index (parent: NP_009172.2) came to 3.4.

B3: PSMB5 addW (peptide)
chain: DGWIRVSSDNVADLHEKYSGSTPW
B3: the protein stability index (parent: NP_002788.1) was 3.46.

B4: POLD2 addW (peptide)
chain: CQPISFSGFGAEDDDLGGLGLGPW
On to B4, for which the protein stability index (parent: NP_006221.1) was 2.02.

B5: BEX2 addW (peptide)
chain: HSLRAVSTDPPHHDHHDEFCLMPW
B5: the protein stability index (parent: NP_116010.1) was found to be 3.48.
